According to US20240317840A1 (Novartis, published 2024):
Residue numbers refer to the chain shown, from its start.

B1: NOV3833 (antibody, human IgG1, lambda, V domains shown)
VH: EMQVLESGGGLVQPGGSLRLSCAASGFTFHNYAMSWVRQVPGKGLEWVSSISGSGGSTYYADSVKGQFTISRDNSKNTLYLQMNSLRAEDTAVYYCAKSSILSGGHARVYGIDVWGQGTTVTVSS
VL: QSALTQPPSVSVAPGQTARITCGGNNIGSQSVHWYQQKPGQAPILVVYDDTDRPSGIPARFSGSSSGSTATLTIGRVEAGDEADYYCQVWDSSSDHVVFGGGTKLTVLS
notes: Full human IgG1 (lambda) expressed in CHO cells
B2: NOV3837 (antibody, human IgG1, kappa, V domains shown)
VH: QVQLQESGGRLVRPGGSLRLSCAASGFIFTDYYMTWIRQAPGKGPEWIAFITSGGETTYYADSVKGRFTISRDNAKKSLFLQMYSLRADDTAVYYCVRAHFDGYQYDTRGDFTYYFDNWGLGTLVSVSS
VL: EIVMTQSPATLSVSPGERVTLSCRASQSVSSSLAWYQQKPGRAPRLLIYGASTRATGVPARFSGGGSGTDFTLTISSLQSEDFAVYYCHQYINWPPGDTFGQGTRLDIKR
notes: Full human IgG1 (kappa) expressed in CHO cells
B3: NOV3838 (antibody, human IgG1, kappa, V domains shown)
VH: B2 VH with G103L
VL: B2 VL
notes: as for B2
B4: NOV3839 (antibody, human IgG1, kappa, V domains shown)
VH: B2 VH with G103I
VL: B2 VL
notes: as for B2
B5: NOV3840 (antibody, human IgG1, lambda, V domains shown)
VH: EVQLLESGGGLVQPGGSRRLSCAASGFTFSYYGMNWVRQAPGKGLEWVSGITNSGSITYYADSVKGRFSISRDNSKNTLFLQMNSLRAEDTAVYYCAKVGVRSSSGMWDLDYWGQGTLVTVSS
VL: SYVLTQPPSVSVAPGQTARLSCGGNNIGSKSLQWYQQKPGQAPVLVVNDDSDRPSGIPERFSGSNSGNTATLTISRVEAGDEADYYCQVWDTSSDHVVFGGGTKLTVLG
notes: as for B1
B6: NOV3841 (antibody, human IgG1, lambda, V domains shown)
VH: B5 VH with N53Q, S63T
VL: B5 VL with D50E
notes: as for B1
B7: NOV3842 (antibody, human IgG1, lambda, V domains shown)
VH: B5 VH with S54V, S63T
VL: B5 VL with D50E
notes: as for B1

Target: HBsAg clinical mutation T126S (Hepatitis B virus)
Assay: sandwich ELISA, captured mutant HBsAg from culture supernatant;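 further: Anti-HBsAg antibodies tested for binding to mutant HBsAg secreted by stably transfected cell lines, supernatant incubated 1 h on antibody-coated plates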
Description: (§1) The binding of anti-HBsAg antibodies to 4 well characterized vaccine and/or HBsAg clinical mutations of HBsAg (G145R, D144A, T126S, M133L) were analyzed by sandwich ELISA. […] Supernatant collected from HBsAg cell-culture derived clinical mutation stables (G145R, D144A, T126S, M133L) was allowed to bind antibody coated plates for 1 hour.

| Binder | IC50 |
| --- | --- |
| B1 | 25 pM |
| B2 | 30 pM |
| B3 | 110 pM |
| B4 | 88 pM |
| B5 | 10 pM |
| B6 | 79 pM |
| B7 | 42 pM |

Target: HBsAg clinical mutation D144A (Hepatitis B virus)
Assay: as above
Description: as §1

| Binder | IC50 |
| --- | --- |
| B1 | 2800 pM |
| B2 | 270 pM |
| B3 | 6100 pM |
| B4 | 3600 pM |
| B5 | 12 pM |
| B6 | 7800 pM |
| B7 | 120 pM |

Target: HBsAg clinical mutation G145R (Hepatitis B virus)
Assay: as above
Description: as §1

| Binder | IC50 |
| --- | --- |
| B1 | > 67000 pM |
| B3 | 5200 pM |
| B4 | 8600 pM |
| B6 | > 67000 pM |
| B7 | > 67000 pM |

Target: HBsAg clinical mutation M133L (Hepatitis B virus)
Assay: as above
Description: as §1

| Binder | IC50 |
| --- | --- |
| B1 | 36 pM |
| B2 | 35 pM |
| B3 | 150 pM |
| B4 | 85 pM |
| B5 | 13 pM |
| B6 | 44 pM |
| B7 | 84 pM |

Target: HBsAg clinical mutation T126S (Hepatitis B virus)
Assay: sandwich ELISA, mutant HBsAg from cell supernatant captured on horse polyclonal anti-HBsAg, antibody titrated, absorbance 450 nm

| Binder | EC50 (read off the curve) |
| --- | --- |
| B4 | ~100 pM |

Target: HBsAg clinical mutation M133L (Hepatitis B virus)
Assay: as above

| Binder | EC50 (read off the curve) |
| --- | --- |
| B4 | ~100 pM |

Target: HBsAg clinical mutation T126S (Hepatitis B virus)
Assay: as above
Remark: another data set of the same source

| Binder | EC50 (read off the curve) |
| --- | --- |
| B3 | ~100 pM |

Target: HBsAg clinical mutation M133L (Hepatitis B virus)
Assay: as above
Remark: another data set of the same source

| Binder | EC50 (read off the curve) |
| --- | --- |
| B3 | ~200 pM |

Target: T1, HBsAg AD serotype (Hepatitis B virus)
T1 construct: also called HBsAg serotype AD
Assay: SPR epitope binning; competitor (1st, saturating Ab): CR8087
Description: (§2) Epitope binning of anti-HBsAg antibodies with the two major serotypes of HBsAg, AY and AD, was performed utilizing surface plasmon resonance (SPR) technology. […] Each pair of antibodies was tested for blocking one another's binding to their epitope on the antigen by subsequently applying one antibody as first (saturating) followed by the other as second (competing) antibody and vice versa. Saturating antibodies were applied at 500 nM for 120s. Competing antibodies utilized the same conditions but were supplemented with the first antibody at 500 nM to maintain saturation. Binding signals were corrected by subtracting the reference cell signal. Specific binding of the competing antibody in presence of the saturating antibody was calculated by subtracting a saturating antibody plus buffer reference signal. All signals were normalized to 100 RU of immobilized ligand. The specific binding signal obtained from the application as competing antibody was expressed as percentage of the binding signal obtained from the application of the same antibody as saturating (first) antibody, the signal of which was regarded 100% binding.

| Binder | binding of second antibody |
| --- | --- |
| B6 | 282 % of its binding as first antibody |
| B7 | 216 % of its binding as first antibody |

Target: T2, HBsAg AY serotype (Hepatitis B virus)
T2 construct: also called HBsAg serotype AY
Assay: as above
Description: as §2

| Binder | binding of second antibody |
| --- | --- |
| B6 | 129 % of its binding as first antibody |
| B7 | 118 % of its binding as first antibody |

Target: T1, HBsAg AD serotype
Assay: SPR Biacore T200, HBsAg particles immobilized, antibody as analyte, 1:1 fit;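 further: Anti-HBsAg antibodies assessed for binding against both major HBsAg serotypes, AY and AD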
Description: (§3) Binding affinity interaction (KD) of the anti-HBsAg antibodies with the two major serotypes of HBsAg, AY and AD, was determined utilizing surface plasma resonance (SPR) technology.

| Binder | Kd |
| --- | --- |
| B1 | 330 pM |
| B2 | 670 pM |
| B3 | 680 pM |
| B4 | 590 pM |
| B5 | 450 pM |
| B6 | 910 pM |
| B7 | 130 pM |

Target: T2, HBsAg AY serotype
Assay: as above
Description: as §3

| Binder | Kd |
| --- | --- |
| B1 | 260 pM |
| B2 | 750 pM |
| B3 | 600 pM |
| B4 | 2400 pM |
| B5 | 380 pM |
| B6 | 610 pM |
| B7 | 150 pM |

Target: T3, HBsAg of HBV genotype A (AY934772) (Hepatitis B virus)
T3 construct: captured from supernatant by horse polyclonal anti-HBsAg
Assay: sandwich ELISA, captured HBsAg from culture supernatant
Description: (§4) The binding of anti-HBsAg antibodies to the 4 major genotypes (A-D) of HBV were analyzed by sandwich ELISA.

| Binder | IC50 |
| --- | --- |
| B1 | 560 pM |
| B2 | 93 pM |
| B3 | 200 pM |
| B4 | 1600 pM |
| B5 | 23 pM |
| B6 | 1100 pM |
| B7 | 460 pM |

Target: HBsAg of HBV genotype C (DQ087960) (Hepatitis B virus)
Assay: as above
Description: as §4

| Binder | IC50 |
| --- | --- |
| B1 | 120 pM |
| B2 | 170 pM |
| B3 | 210 pM |
| B4 | 370 pM |
| B5 | 16 pM |
| B6 | 2000 pM |
| B7 | 750 pM |

Target: HBsAg of HBV genotype B (AF 121245) (Hepatitis B virus)
Assay: as above
Description: as §4

| Binder | IC50 |
| --- | --- |
| B1 | 120 pM |
| B2 | 69 pM |
| B3 | 50 pM |
| B4 | 170 pM |
| B5 | 22 pM |
| B6 | 350 pM |
| B7 | 280 pM |

Target: T1, HBsAg AD serotype
Assay: SPR epitope binning; competitor (1st, saturating Ab): HBC34
Description: as §2

| Binder | binding of second antibody |
| --- | --- |
| B6 | 145 % of its binding as first antibody |
| B7 | 115 % of its binding as first antibody |

Target: T2, HBsAg AY serotype
Assay: as above
Description: as §2

| Binder | binding of second antibody |
| --- | --- |
| B6 | 107 % of its binding as first antibody |
| B7 | 103 % of its binding as first antibody |

Target: HBsAg clinical mutation T126S (Hepatitis B virus)
Assay: sandwich ELISA, mutant HBsAg from cell supernatant captured on horse polyclonal anti-HBsAg, antibody titrated, absorbance 450 nm
Remark: another data set of the same source

| Binder | EC50 (read off the curve) |
| --- | --- |
| B2 | ~30 pM |

Target: HBsAg clinical mutation M133L (Hepatitis B virus)
Assay: as above
Remark: another data set of the same source

| Binder | EC50 (read off the curve) |
| --- | --- |
| B2 | ~40 pM |

Target: HBsAg clinical mutation T126S (Hepatitis B virus)
Assay: as above
Remark: another data set of the same source

| Binder | EC50 (read off the curve) |
| --- | --- |
| B7 | ~50 pM |

Target: HBsAg clinical mutation D144A (Hepatitis B virus)
Assay: as above

| Binder | EC50 (read off the curve) |
| --- | --- |
| B7 | ~100 pM |

Target: HBsAg clinical mutation M133L (Hepatitis B virus)
Assay: as above
Remark: another data set of the same source

| Binder | EC50 (read off the curve) |
| --- | --- |
| B7 | ~50 pM |

Target: HBsAg clinical mutation T126S (Hepatitis B virus)
Assay: as above
Remark: another data set of the same source

| Binder | EC50 (read off the curve) |
| --- | --- |
| B1 | ~40 pM |

Target: HBsAg clinical mutation M133L (Hepatitis B virus)
Assay: as above
Remark: another data set of the same source

| Binder | EC50 (read off the curve) |
| --- | --- |
| B1 | ~50 pM |

Target: HBsAg clinical mutation T126S (Hepatitis B virus)
Assay: as above
Remark: another data set of the same source

| Binder | EC50 (read off the curve) |
| --- | --- |
| B5 | ~20 pM |

Target: HBsAg clinical mutation D144A (Hepatitis B virus)
Assay: as above
Remark: another data set of the same source

| Binder | EC50 (read off the curve) |
| --- | --- |
| B5 | ~20 pM |

Target: HBsAg clinical mutation M133L (Hepatitis B virus)
Assay: as above
Remark: another data set of the same source

| Binder | EC50 (read off the curve) |
| --- | --- |
| B5 | ~20 pM |

Target: HBsAg of HBV genotype D, serotype ayw (Hepatitis B virus)
Assay: cell-based or functional assay

| Binder | Virus neutralization EC50 |
| --- | --- |
| B1 | 270 pM |
| B2 | 49 pM |
| B3 | 120 pM |
| B4 | 90 pM |
| B5 | 56 pM |
| B6 | 740 pM |
| B7 | 230 pM |

Target: HBsAg clinical mutation T126S (Hepatitis B virus)
Assay: sandwich ELISA, mutant HBsAg from cell supernatant captured on horse polyclonal anti-HBsAg, antibody titrated, absorbance 450 nm
Remark: another data set of the same source

| Binder | EC50 (read off the curve) |
| --- | --- |
| B6 | ~70 pM |

Target: HBsAg clinical mutation M133L (Hepatitis B virus)
Assay: as above
Remark: another data set of the same source

| Binder | EC50 (read off the curve) |
| --- | --- |
| B6 | ~60 pM |
